Measurements reported in publication PMC9633789 (Nature Communications, 2022).

Biological target: the molecule itself
Assay: SEC; Superose 6 Increase 10/300 GL; 25 mM HEPES-KOH pH 8.0, 100 mM NaCl, 5 mM MgCl2, 1 mM DTT, 10% sucrose; step of the purification of His-p97

B1: His-p97 (recombinant Xenopus p97) (enzyme, UniProt P23787 1-805, looked up)
chain: MASGSDTKSDDLSTAILKQKSRPNRLIVDESINEDNSMVSLSQAKMDELQLFRGDTVLLKGKKRREAVCIVLSDDTCSDEKIRMNRVVRNNLRVRLGDVISIQPCPDVKYGKRVHVLPIDDTVEGITGNLFEVYLKPYFLEAYRPIRKGDIFLVRGGMRAVEFKVVETDPSPYCIVAPDTVIHCEGEPIKREDEEESLNEVGYDDIGGCRKQLAQIKEMVELPLRHPALFKAIGVKPPRGILLYGPPGTGKTLIARAVANETGAFFFLINGPEIMSKLAGESESNLRKAFEEAEKNAPAIIFIDELDAIAPKREKTHGEVERRIVSQLLTLMDGLKQRAHVIVMAATNRPNSIDPALRRFGRFDREVDIGIPDSTGRLEILQIHTKNMKLSDDVDLEQVANETHGHVGADLAALCSEAALQAIRKKMDLIDLEDETIDAEVMNSLAVTMDDFRWALSQSNPSALRETVVEVPQVTWEDIGGLEDVKRELQELVQYPVEHPDKFLKFGMTPSKGVLFYGPPGCGKTLLAKAIANECQANFISIKGPELLTMWFGESEANVREIFDKARQAAPCVLFFDELDSIAKARGGNIGDGGGAADRVINQILTEMDGMSIKKNVFIIGATNRPDIIDPAILRPGRLDQLIYIPLPDEKSRMAILKANLRKSPVAKDVDVDFLAKMTNGFSGADLTEICQRACKLAIRESIENEIRRERDRQTNPSAMEVEEDDPVPEIRRDHFEEAMRFARRSVSDNDIRKYEMFAQTLQQSRGFGSFRFPAGGQSGAGPSPGAGGGSGGGHFTEEDDDLYG
notes: p97, Xenopus; source: E. coli Rosetta 2 (DE3), purified (HisTrap HP, Superose 6 Increase)
**Q.** B1 was tested. Which “stoichiometry N” value did it give?
**A.** The value was 6.
